According to the Immune Epitope Database (IEDB):

What was measured:
HLA-A*02:01 [1] = assay: IEDB peptide-MHC binding, purified MHC/direct/fluorescence; filed as Kd, often an IC50 or EC50 that approximates it; ≥ and ≤ were set here for values at or beyond the usual limits of such assays
HLA-A*26:01 = assay: IEDB peptide-MHC binding, purified MHC/competitive/fluorescence; filed as Kd, often an IC50 or EC50 that approximates it; ≥ and ≤ were set here for values at or beyond the usual limits of such assays
HLA-A*69:01 [2] = assay: as above; conditions: source organism: Homo sapiens
HLA-B*15:01 [3] = assay: as above
HLA-B*15:17 [4] = assay: as above
HLA-B*18:01 [5] = assay: as above
HLA-B*27:03 = assay: as above
HLA-B*39:01 = assay: as above
HLA-B*46:01 [6] = assay: as above
HLA-B*51:01 = assay: as above
HLA-B*57:01 [7] = assay: as above
HLA-A*11:01 [8] = assay: IEDB peptide-MHC binding, purified MHC/competitive/fluorescence; ≥ and ≤ were set here for values at or beyond the usual limits of such assays
HLA-B*15:17 [9] = assay: IEDB peptide-MHC binding, purified MHC/direct/fluorescence; filed as Kd, often an IC50 or EC50 that approximates it; ≥ and ≤ were set here for values at or beyond the usual limits of such assays; conditions: source organism: West Nile virus
HLA-A*01:01 = assay: as above
HLA-A*03:01 [10] = assay: as above
HLA-A*11:01 [11] = assay: as above
HLA-A*29:02 = assay: as above
HLA-A*31:01 = assay: as above
HLA-A*69:01 [12] = assay: as above
HLA-B*08:01 = assay: as above
HLA-B*15:01 [13] = assay: as above
HLA-B*18:01 [14] = assay: as above
HLA-B*27:05 = assay: as above
HLA-B*40:01 = assay: as above
HLA-B*44:02 = assay: as above
HLA-B*46:01 [15] = assay: as above
HLA-B*57:01 [16] = assay: as above
HLA-B*58:01 = assay: as above
HLA-A*02:01 [17] = assay: IEDB peptide-MHC binding, purified MHC/competitive/radioactivity; filed as Kd, often an IC50 or EC50 that approximates it; ≥ and ≤ were set here for values at or beyond the usual limits of such assays
HLA-A*02:17 = assay: as above
HLA-A*02:12 = assay: IEDB peptide-MHC binding, purified MHC/direct/fluorescence; filed as Kd, often an IC50 or EC50 that approximates it; ≥ and ≤ were set here for values at or beyond the usual limits of such assays; conditions: source organism: Zaire ebolavirus
HLA-A*02:19 = assay: as above; conditions: source organism: Zaire ebolavirus
HLA-A*24:03 = assay: as above; conditions: source organism: Zaire ebolavirus
HLA-A*68:02 [18] = assay: as above; conditions: source organism: Zaire ebolavirus
HLA-B*48:01 = assay: as above; conditions: source organism: Ebola virus - Gabon (1994-1997)
HLA-A*02:01 [19] = assay: IEDB peptide-MHC binding, purified MHC/competitive/fluorescence; ≥ and ≤ were set here for values at or beyond the usual limits of such assays; conditions: source organism: Zaire ebolavirus
HLA-A*03:01 [20] = assay: IEDB peptide-MHC binding, purified MHC/competitive/fluorescence; filed as Kd, often an IC50 or EC50 that approximates it; ≥ and ≤ were set here for values at or beyond the usual limits of such assays
HLA-A*02:03 = assay: IEDB peptide-MHC binding, purified MHC/competitive/radioactivity; filed as Kd, often an IC50 or EC50 that approximates it; ≥ and ≤ were set here for values at or beyond the usual limits of such assays; conditions: source organism: Dengue virus 3 Martinique/1243/1999
HLA-A*02:06 = assay: as above; conditions: source organism: Dengue virus 3 Martinique/1243/1999
HLA-A*68:02 [21] = assay: as above; conditions: source organism: Dengue virus 3 Martinique/1243/1999
HLA-A*02:01 [22] = assay: IEDB peptide-MHC binding, purified MHC/competitive/fluorescence; filed as Kd, often an IC50 or EC50 that approximates it; ≥ and ≤ were set here for values at or beyond the usual limits of such assays; conditions: source organism: Cryptococcus neoformans var. neoformans B-3501A
[23] = source organism: Sudan ebolavirus
[24] = source organism: Reston ebolavirus - Reston
[25] = source organism: Reston ebolavirus
[26] = source organism: Zaire ebolavirus
[27] = source organism: Dengue virus 3 China/80-2/1980
[28] = source organism: Ebola virus - Gabon (1994-1997)
[29] = source organism: Dengue virus 1 Singapore/S275/1990
[30] = source organism: Dengue virus 4 Dominica/814669/1981
[31] = source organism: Cryptococcus neoformans var. neoformans B-3501A

Sequence: FLQQRKPPL
- Kd (HLA-A*02:01 [1]; source organism: Mus musculus): 0.432 µM
- Kd (HLA-A*26:01; source organism: Homo sapiens): ≥ 20 µM
- Kd (HLA-A*69:01 [2]): ≥ 20 µM
- Kd (HLA-B*15:01 [3]; source organism: Homo sapiens): ≥ 20 µM
- Kd (HLA-B*15:17 [4]; source organism: Homo sapiens): ≥ 20 µM
- Kd (HLA-B*18:01 [5]; source organism: Homo sapiens): ≥ 20 µM
- Kd (HLA-B*27:03; source organism: Homo sapiens): ≥ 20 µM
- Kd (HLA-B*39:01; source organism: Homo sapiens): ≥ 20 µM
- Kd (HLA-B*46:01 [6]; source organism: Homo sapiens): ≥ 20 µM
- Kd (HLA-B*51:01; source organism: Homo sapiens): ≥ 20 µM
- Kd (HLA-B*57:01 [7]; source organism: Homo sapiens): ≥ 20 µM

Sequence: GEWAFWENK
- IC50 (HLA-A*11:01 [8]; [23]): 26.2 µM

Sequence: YITDYSNDI
- Kd (HLA-A*02:01 [1]; source organism: Homo sapiens): 0.0075 µM
- Kd (HLA-A*26:01; source organism: Homo sapiens): ≥ 20 µM
- Kd (HLA-A*69:01 [2]): ≥ 20 µM
- Kd (HLA-B*15:01 [3]; source organism: Homo sapiens): ≥ 20 µM
- Kd (HLA-B*15:17 [4]; source organism: Homo sapiens): ≥ 20 µM
- Kd (HLA-B*18:01 [5]; source organism: Homo sapiens): ≥ 20 µM
- Kd (HLA-B*27:03; source organism: Homo sapiens): ≥ 20 µM
- Kd (HLA-B*39:01; source organism: Homo sapiens): ≥ 20 µM
- Kd (HLA-B*46:01 [6]; source organism: Homo sapiens): ≥ 20 µM
- Kd (HLA-B*51:01; source organism: Homo sapiens): ≥ 20 µM
- Kd (HLA-B*57:01 [7]; source organism: Homo sapiens): ≥ 20 µM

Sequence: RAWNSGYEW
- Kd (HLA-B*15:17 [9]): 0.0044 µM

Sequence: EDDDAASSR
- IC50 (HLA-A*11:01 [8]; [23]): ≥ 70.9 µM

Sequence: FHRKKTDAL
- Kd (HLA-A*01:01; [24]): ≥ 20 µM
- Kd (HLA-A*02:01 [1]; [24]): ≥ 20 µM
- Kd (HLA-A*03:01 [10]; [24]): ≥ 20 µM
- Kd (HLA-A*11:01 [11]; [24]): ≥ 20 µM
- Kd (HLA-A*29:02; [24]): ≥ 20 µM
- Kd (HLA-A*31:01; [24]): ≥ 20 µM
- Kd (HLA-A*69:01 [12]; [24]): ≥ 20 µM
- Kd (HLA-B*08:01; [24]): 0.451 µM
- Kd (HLA-B*15:01 [13]; [24]): ≥ 20 µM
- Kd (HLA-B*18:01 [14]; [24]): ≥ 20 µM
- Kd (HLA-B*27:05; [24]): ≥ 20 µM
- Kd (HLA-B*40:01; [24]): ≥ 20 µM
- Kd (HLA-B*44:02; [24]): ≥ 20 µM
- Kd (HLA-B*46:01 [15]; [24]): ≥ 20 µM
- Kd (HLA-B*57:01 [16]; [24]): ≥ 20 µM
- Kd (HLA-B*58:01; [24]): ≥ 20 µM
- Kd (HLA-A*26:01; [25]): ≥ 20 µM
- Kd (HLA-B*15:17 [4]; [25]): ≥ 20 µM
- Kd (HLA-B*27:03; [25]): ≥ 20 µM

Sequence: QAKKDFFSS
- IC50 (HLA-A*11:01 [8]; [26]): 66.8 µM

Sequence: YMGEDGCWYG
- Kd (HLA-A*02:01 [17]; [27]): 0.211 µM
- Kd (HLA-A*02:17; [27]): 6.04 µM

Sequence: QLSLKMLSL
- Kd (HLA-A*01:01; [28]): ≥ 20 µM
- Kd (HLA-A*02:01 [1]; [28]): ≥ 20 µM
- Kd (HLA-A*02:12): ≥ 20 µM
- Kd (HLA-A*02:19): ≥ 20 µM
- Kd (HLA-A*03:01 [10]; [28]): ≥ 20 µM
- Kd (HLA-A*11:01 [11]; [28]): ≥ 20 µM
- Kd (HLA-A*24:03): ≥ 20 µM
- Kd (HLA-A*29:02; [28]): ≥ 20 µM
- Kd (HLA-A*31:01; [28]): ≥ 20 µM
- Kd (HLA-A*68:02 [18]): ≥ 20 µM
- Kd (HLA-A*69:01 [12]; [28]): ≥ 20 µM
- Kd (HLA-B*08:01; [28]): 0.816 µM
- Kd (HLA-B*15:01 [13]; [28]): ≥ 20 µM
- Kd (HLA-B*18:01 [14]; [28]): ≥ 20 µM
- Kd (HLA-B*27:05; [28]): ≥ 20 µM
- Kd (HLA-B*40:01; [28]): ≥ 20 µM
- Kd (HLA-B*44:02; [28]): ≥ 20 µM
- Kd (HLA-B*46:01 [15]; [28]): ≥ 20 µM
- Kd (HLA-B*48:01): ≥ 20 µM
- Kd (HLA-B*57:01 [16]; [28]): ≥ 20 µM
- Kd (HLA-B*58:01; [28]): ≥ 20 µM
- Kd (HLA-A*26:01; [26]): ≥ 20 µM
- Kd (HLA-B*27:03; [26]): ≥ 20 µM
- Kd (HLA-B*39:01; [26]): ≥ 20 µM
- Kd (HLA-B*51:01; [26]): ≥ 20 µM

Sequence: VLDHILQKT
- IC50 (HLA-A*02:01 [19]): 2.62 µM
- IC50 (HLA-A*11:01 [8]; [26]): 55 µM

Sequence: GVNNLEHGL
- IC50 (HLA-A*02:01 [19]): 6.44 µM
- IC50 (HLA-A*11:01 [8]; [26]): ≥ 132 µM

Sequence: GLFNYFFGK
- Kd (HLA-A*03:01 [20]; source organism: Entamoeba histolytica HM-1:IMSS): 0.041 µM

Sequence: MQDVFTFYV
- Kd (HLA-A*02:01 [1]; source organism: Homo sapiens): 0.0008 µM
- Kd (HLA-A*26:01; source organism: Homo sapiens): ≥ 20 µM
- Kd (HLA-B*15:01 [3]; source organism: Homo sapiens): ≥ 20 µM
- Kd (HLA-B*15:17 [4]; source organism: Homo sapiens): ≥ 20 µM
- Kd (HLA-B*18:01 [5]; source organism: Homo sapiens): ≥ 20 µM
- Kd (HLA-B*27:03; source organism: Homo sapiens): ≥ 20 µM
- Kd (HLA-B*46:01 [6]; source organism: Homo sapiens): ≥ 20 µM
- Kd (HLA-B*51:01; source organism: Homo sapiens): ≥ 20 µM
- Kd (HLA-B*57:01 [7]; source organism: Homo sapiens): ≥ 20 µM

Sequence: LMSGKDVFYL
- Kd (HLA-A*02:01 [17]; [27]): 0.00476 µM
- Kd (HLA-A*02:17; [27]): 0.00867 µM

Sequence: FLAIPPTAGV
- Kd (HLA-A*02:03): 0.00172 µM
- Kd (HLA-A*02:06): 0.12 µM
- Kd (HLA-A*02:17; [27]): 0.0119 µM
- Kd (HLA-A*68:02 [21]): 0.00973 µM

Sequence: YLALMATFKM
- Kd (HLA-A*02:01 [17]; [29]): 0.0128 µM
- Kd (HLA-A*02:17; [29]): 0.182 µM

Sequence: VLGYSRMLY
- Kd (HLA-A*03:01 [20]; source organism: Escherichia coli 536): 0.0903 µM

Sequence: SMGLITIAV
- Kd (HLA-A*02:01 [17]; [30]): 0.00999 µM
- Kd (HLA-A*02:17; [30]): 0.776 µM

Sequence: AIDDFCLFA
- Kd (HLA-A*02:01 [22]): 0.0135 µM
- Kd (HLA-A*03:01 [20]; [31]): ≥ 20 µM
- Kd (HLA-A*26:01; [31]): ≥ 20 µM
- Kd (HLA-B*15:01 [3]; [31]): ≥ 20 µM
- Kd (HLA-B*18:01 [5]; [31]): ≥ 20 µM
- Kd (HLA-B*27:03; [31]): ≥ 20 µM
- Kd (HLA-B*39:01; [31]): ≥ 20 µM
- Kd (HLA-B*46:01 [6]; [31]): ≥ 20 µM
- Kd (HLA-B*57:01 [7]; [31]): ≥ 20 µM

Sequence: LLANILSEK
- Kd (HLA-A*03:01 [20]; source organism: Rickettsia sibirica 246): 0.0078 µM
